In PMC3937308, “The Post-transcriptional Regulator rsmA/csrA Activates T3SS by Stabilizing the 5′ UTR of hrpG, the Master Regulator of hrp/hrc Genes, in Xanthomonas”:

Experiments:
6HisRsmA (RsmAxcc) [1] = target: T1, 6HisRsmA (RsmAxcc) (Xanthomonas citri subsp. citri strain …, UniProt Q8PLP9 1-70); assay: EMSA; 10 mM HEPES pH 7.3, 20 mM KCl, 1 mM MgCl2, 1 mM DTT, 5% glycerol, 0.1 µg/µL yeast tRNA, 20 U RNasin, 25 °C 20 min; 5% native PAGE; conditions: protein: recombinant; tags: N-terminal 6xHis (pET-28a, NdeI site); chain copies: 2; label: 3' biotin
6HisRsmA (RsmAxcc) [2] = target: T1, 6HisRsmA (RsmAxcc); assay: EMSA; 65 nM protein, 6.25 nM RNA; 10 mM HEPES pH 7.3, 20 mM KCl, 1 mM MgCl2, 1 mM DTT, 5% glycerol, 0.1 µg/µL yeast tRNA, 20 U RNasin, 25 °C 20 min; 5% native PAGE; conditions: protein: recombinant; tags: N-terminal 6xHis (pET-28a, NdeI site); chain copies: 2
6HisRsmA (RsmAxcc) [3] = target: T1, 6HisRsmA (RsmAxcc); assay: EMSA; apparent Kd; 6.25 nM RNA; 10 mM HEPES pH 7.3, 20 mM KCl, 1 mM MgCl2, 1 mM DTT, 5% glycerol, 0.1 µg/µL yeast tRNA, 20 U RNasin, 25 °C 20 min; 5% native PAGE; conditions: protein: recombinant; tags: N-terminal 6xHis (pET-28a, NdeI site); chain copies: 2; label: 3' biotin

T1 sequence (Q8PLP9 whole entry): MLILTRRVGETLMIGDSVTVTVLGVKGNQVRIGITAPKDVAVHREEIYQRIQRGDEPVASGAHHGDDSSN

| Binder | binding result (6HisRsmA (RsmAxcc) [1]) | other results |
| --- | --- | --- |
| AUUCGUCCAGCUCCGCUGGACUCUC (ssRNA) [hrpG1] | no binding | – |
| GGGAAUUCAACUCCAUCUAGGCACAAGGAUGUGCCAUAGUACUCAAGCU (structured_RNA) [R9-43] | – | binding result (6HisRsmA (RsmAxcc) [2]): binds |
| GUGUACGGUCCGCAUGUCAUUAAAACGAGGUGCAGUGUG (ssRNA) [hrpB] | no binding | – |
| GCCCAUCGCGCAGAUUGGCAACAUACGGCUACACCGCAUG (ssRNA) [hrpF] | no binding | – |
| ACGAUGCAGCGAUCUUUGAAGAUGGAUUUUGUCCUGGCAUUG (ssRNA) [hrpG2] | – | Kd (6HisRsmA (RsmAxcc) [3]): 180 ± 200 nM |
| GCGCAGCGAUCGCGGAAGGAGAGGGCAAUG (ssRNA) [hrpC] | no binding | – |
| GUUAGGCGCCUGUUGUCUUUUGCUCCGCCCCCCAAAGAGAGAGAC (ssRNA) [hrpX] | no binding | – |
